Key:
Type in all cases: cell-based, Chinese hamster
LY-A2 cell [1] = experiment: metabolism labeling of lipid using [14C] serine and [14C] choline; details: LY-A2/hCERT cell
Description: CHO-K1 cell, LY-A2 cell, and LY-A2/hCERT cell were inoculated at the cell density of 1.0×10^6 per culture dish having the 60-mm diameter, and cultured at 33° C. overnight. Subsequently, it was exchanged with […] of Nutridoma medium, after [^14C] serine (0.75 μCi) or [^14C] choline (1.0 μCi) have been added, in the case where [^14C] serine is added, it was cultured for 2 hours, and in the case where [^14C] choline is added, it was cultured at 33° C. for 5 hours. However, in the case where the influence on (1R, 3R) HPA-12 is analyzed, after it was pretreated at […] for 15 minutes in 1.5 mL of Nutridoma medium to which 1 μM of (1R,3R) HPA-12 has been added (in control experiment, dimethylsulfoxide used for dissolving a drug was added at the concentration corresponding to 0.01% of the final concentration), [^14C] serine was added, and cultured at 33° C. for 2 hours. After the cell was washed twice in 2 mL of cooled PBS, dissolved in 900 μL of sodium dodecyl sulfate (SDS), then, 800 μL and 20 μL of dissolved matter were used for determining lipid extraction and protein concentration. For the purpose of analyzing lipid labeled with [^14C] serine, the lipid was separated by TLC by making acetic methyl/n-propanol/chloroform/methanol/0.25% KCl (25:25:25 10:9, volume ratio) development solvent. The radioactive lipid separated on the plate was detected and analyzed by an image analyzer.

LY-A cell = experiment: recovery of ceramide transport function of LY-A cell by hCERT stable expression; details: FIG. 9
From the text: Also in the original LY-A cell to which retrovirus receptor has not been introduced, it has been ascertained as described below that ceramide transport function is recovered by hCERT expression. hCERT inserted pcDNA3.1/Neo plasmid was introduced into LY-A cell by performing lipofection, after G418 resistant cell was selected, transformed strain LY-A/hCERT was purified by a limited-dilution. Subsequently, the measurement of the sensitivity to MCD, metabolism labeling experiment of lipid using [^14C] serine and [^14C] choline and cell labeling using C5-DMB-Cer and fluorescene microscopy observation were similarly performed.

LY-A2 cell [2] = experiment: content of phospholipids of cell; details: LY-A2/hCERT cell, FIG. 3(B)
Description: 3×10^6 cells per culture dish having the 150-mm diameter of CHO-K1 cell, LY-A2 cell, or LY-A2/hCERT cell was inoculated in 20 mL of F12/NBS medium, and cultured at 33° C. overnight. After it was washed twice in 10 mL of serum-free F12 medium, it was further cultured for 2 days in 20 mL of Nutridoma BO medium. After it was washed in PBS, the cells were collected by a method of scaping, suspended again in PBS, and lipid was extracted by a method described in Bligh et al (Can. J. Biochem. Physiol. 37, 911-917, 1959). The extracted lipid was separated using TLC whose development solvents were chloroform/methanol/acetic acid/H2O (volume ratio, 25:15:4:2). After the separated phospholipid on the TLC plate was colored by iodine vapor, the band of the respective separated phospholipid was scraped out from the plate. The scraped separated phospholipid was quantified by measuring phosphorus content by a method of Rouser et al (Lipids 1, 85-86, 1966).

LY-A2 cell [3] = experiment: sensibility to MCD and lysenin (MTT)
Description: 100 thousand pieces of cells per each well of a 12-well culture dish were inoculated in 1 mL of F12/NBS culture medium and cultured at 33° C. overnight. After Cells existed on the culture dish was washed twice in 1 mL of serum-free F12 medium, 1 mL of 10 mM MCD/F12 or lysenin (25 ng/mL)/F12 was added. It should be noted that culture medium in which 1 mL of only serum-free F12 has been added was made control. After it has been incubated at 37° C. for one hour, it was washed twice in 1 mL of phosphate buffered saline (PBS). Subsequently, 1 mL of MTT (0.5 mg/mL)/F12 was added and incubated at 37° C. for one hour. The relative amount of the generated reduced form of MTT was measured by a method of reference literature written by Hanada et al (J. Biol. Chem. 273, 33787-33794, 1998).
The relevant gene was expressed in LY-A2 cell by making virus particle derived from retrovirus vector infect it prepared in the foregoing paragraph. Specifically, the relevant gene was expressed in LY-A2 cell by making virus particle derived from pLIB/hCERT. In the case where hCERT was expressed, the purified transformed strain was also separated by a ultradilution method, and this strain was named as LY-A2/hCERT. After it has been cultured for days, the sensitivity to MCD and lysenin was examined by the above-described method. […]

B1: hCERT protein: human CERT protein having an amino acid sequence of SEQ ID NO:1 (protein)
chain: MSDNQSWNSSGSEEDPETESGPPVERCGVLSKWTNYIHGWQDRWVVLKNNALSYYKSEDETEYGCRGSICLSKAVITPHDFDECRFDISVNDSVWYLRAQDPDHRQQWIDAIEQHKTESGYGSESSLRRHGSMVSLVSGASGYSATSTSSFKKGHSLREKLAEMETFRDILCRQVDTLQKYFDACADAVSKDELQRDKVVEDDEDDFPTTRSDGDFLHSTNGNKEKLFPHVTPKGINGIDFKGEAITFKATTAGILATLSHCIELMVKREDSWQKRLDKETEKKRRTEEAYKNAMTELKKKSHFGGPDYEEGPNSLINEEEFFDAVEAALDRQDKIEEQSQSEKVRLHWPTSLPSGDAFSSVGTHRFVQKVEEMVQNHMTYSLQDVGGDANWQLVVEEGEMKVYRREVEENGIVLDPLKATHAVKGVTGHEVCNYFWNVDVRNDWETTIENFHVVETLADNAIIIYQTHKRVWPASQRDVLYLSVIRKIPALTENDPETWIVCNFSVDHDSAPLNNRCVRAKINVAMICQTLVSPPEGNQEISRDNILCKITYVANVNPGGWAPASVLRAVAKREYPKFLKRFTSYVQEKTAGKPILF
modifications: HeLa cell
PC synthesizing rate (LY-A2 cell [1]; radioactive choline, FIG. 4(B)): at the wild type level
SM biosynthesizing rate (LY-A2 cell [1]; radioactive choline, FIG. 4(B)): recovered to the wild type level
SM biosynthesis speed (LY-A2 cell [1]; radioactive serine, FIG. 4(A)): recovered to the wild type level
reactivity with respect to MCD, SM biosynthesis, C5-DMB-Cer transfer from ER to Golgi apparatus region (LY-A cell): recovered to the nature of the wild type
SM content (LY-A2 cell [2]): recovered to the wild type level
MCD resistance and lysenin sensitivity (LY-A2 cell [3]; LY-A2 infected with virus particle derived from pLIB/hCERT, FIG. 2): significantly acquired MCD resistance and lysenin sensitivity
sensitivity to MCD and lysenin (LY-A2 cell [3]; purified LY-A2/hCERT cell, FIG. 3(A)): approximately the same level as the sensitivity seen in the wild type CHO-K1 cell
